The results in this text go back to US20220372112A1 (KEYMED BIOSCIENCES, published 2022).

For orientation: EC50 means the concentration that produces a half-maximal response. Lower therefore signals an effect from little substance.

The target in test [1] is T1, human Claudin 18.2 (human, UniProt P56856-2 1-261).
T1 construct: whole, on cells
T1 sequence (looked up): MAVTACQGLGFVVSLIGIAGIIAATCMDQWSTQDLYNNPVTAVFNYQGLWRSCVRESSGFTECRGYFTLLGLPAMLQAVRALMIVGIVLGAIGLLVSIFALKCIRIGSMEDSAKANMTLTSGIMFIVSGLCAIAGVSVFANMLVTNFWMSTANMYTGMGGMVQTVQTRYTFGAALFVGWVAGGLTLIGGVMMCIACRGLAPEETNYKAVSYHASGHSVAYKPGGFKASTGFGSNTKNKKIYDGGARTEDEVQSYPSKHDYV
The test can be described thus: flow cytometry (iQue) on HEK293-Claudin 18.2 cells, chimeric IgG1. As for the experimental part: (§1) The HEK293-Claudin 18.1 cells, HEK293-Claudin 18.2 cells and HEK293 cells at logarithmic growth phase were taken, after digesting, added at 5×10⁴ cells/100 μL to the U-shaped 96-well plate, centrifuged at 1100 rpm for 3 minutes, the supernatant was discarded, the cells were gently patted and loosed, 50 μL of antibody diluted according to the series was added to each well (antibody concentration starts from 100 nM, 5 times dilution in 8 series), and incubate at 4° C. for 1 hour. After the incubation, 140 μL 0.5% BSA was added to each well to wash 3 times, the secondary antibody AlexaFluro647 anti-human IgG (Jackson ImmunoResearch, catalog number: 109-606-170) was added with 30 μL/well, and incubated at 4° C. for 40 minutes. After the incubation, 140 μL 0.5% BSA was added to each well to wash 3 times, and finally resuspended each well with 50 μL PBS for flow cytometry (iQue Screener) detection.
Background: In flow cytometry, cells or beads pass a laser one at a time.

The target of a further test is T2, human Claudin 18.1 (human, UniProt P56856 1-261).
T2 construct: whole, on cells
T2 sequence (looked up): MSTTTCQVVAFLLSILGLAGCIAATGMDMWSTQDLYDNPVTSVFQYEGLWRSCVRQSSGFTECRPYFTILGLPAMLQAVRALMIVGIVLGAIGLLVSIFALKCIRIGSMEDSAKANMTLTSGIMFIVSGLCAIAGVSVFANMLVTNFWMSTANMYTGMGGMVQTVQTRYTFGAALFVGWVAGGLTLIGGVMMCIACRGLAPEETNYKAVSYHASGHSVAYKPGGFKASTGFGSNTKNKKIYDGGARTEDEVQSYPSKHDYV
The test can be described thus: flow cytometry on HEK293-Claudin 18.1 cells, chimeric IgG1. As for the experimental part:
as §1

The target in test [2] is T1, human Claudin 18.2. The test can be described thus: flow cytometry (iQue) on cells, antibody from 100 nM in 5-fold steps; cell line not named in Example 5. As for the experimental part:
The cells at logarithmic growth phase were taken, blocked with 3% BSA for 30 minutes, plated at 5×10⁴ cells/100 μL into a U-shaped 96-well plate, centrifuged at 1100 rpm for 3 minutes, the supernatant was discarded, the cells were gently patted and loosed, 50 μL of antibody diluted according to the series was added to each well (antibody concentration starts from 100 nM, 5 times dilution in 8 series), incubated at 4° C. for 1 hour. After the incubation, 140 μL of 0.5% BSA was added to each well to wash 3 times, AF 647 APC anti-human secondary antibody was added with 30 μL/well and incubated at 4° C. for 40 minutes. After the incubation, 140 μL of 0.5% BSA was added to each well to wash 3 times, and finally resuspended each well with 50 μL PBS for iQue (Intellicyt, USA) detection (shown in Table 2).

B1: 18G5 (antibody, V domains shown)
VH: EVQLQQSGREVVRPGTSVKVSCKPSGYAFTNYLIDWVKQRPGQGLEWIGGINPGSGDTVYNEKFKAKATLTADKSSMTTNMQLSSLTSDDSAVYFCARRVRGNSFDSWGQGTLVTVSA
VL: DIVMTQSPSSLTVRAGEKVTMTCKSSQSLFNSGNQRNYLTWYQQKPGQPPKLLLYWATARESGVPDRFTGSGSGTDFTLSISSVQAEDLAVYYCQNVYFYPLTFGAGTKLEIK
notes: also called Clone 18G5
In turn, B1 displayed an EC50 with human Claudin 18.2 [1] of 3790 pM. Besides, in the test with human Claudin 18.1, the binding result was “no binding (tested: 100 nM (highest concentration tested))”.

B2: 8C11 (antibody, V domains shown)
VH: QVQLQQSGAELVKPGASVKLSCKASGYTFTTFGINWVRQRPEQGLEWIGWIFPGDGSIKYNEKFKGKATLTTDKSSSTAYMQISSLTSEDSAVYFCARFYYGNSFVSWGQGTLVTVSA
VL: DIVMTQSPSSLAVTAGEKVTMTCKSSQSLLNSGNQKNYLTWYQQRPGQPPKLLLYWASTRESGVPDRFTGSGSGTDFALTITSVQAEDLAVYYCQNDYTYPFTFGSGTKLEIK
notes: also called Clone 8C11
Take B2: in the test with human Claudin 18.2 [1], it took 230 pM to reach a half-maximal effect (EC50). Also, in the test with human Claudin 18.1, the binding result is listed as “no binding (tested: 100 nM (highest concentration tested))”.

B3: 9C9 (antibody, V domains shown)
VH: EVQLKESGPGLVAPSQSLSITCTVSGFSLTNYGVSWIRQPPGKGLEWLGAIWAGGNTNYNSALMSRLSIRKDNSKSQVFLKMNSLQTDDTAMYYCARVGYGNSFANWGQGTLVTVSA
VL: DIVMTQSPSSLTVTAGEKVTLSCKSSQTLLNSGNQKNYLTWYQQKPGQPPKLLIYWASTRESGVPDRFTGSGSGTDFTLTISSVQAEDLAVYYCQNNYFYPLTFGAGTRLEIK
notes: also called Clone 9C9
Consider B3, for which a half-maximal response with human Claudin 18.2 [1] (EC50) required 1460 pM. Besides, in the test with human Claudin 18.1, the binding result was “no binding (tested: 100 nM (highest concentration tested))”.

B4: 19B2 (antibody, V domains shown)
VH: QVQLQQSGAELVKPGTSVKLSCKASGYSFTTYGLNWVRQRPKQGLEWIGWIFPGDGNVNYNEKFQGQATLTTDKSSSTAYMQLSRLTSEDSAVYFCARFYYGNSLNYWGQGTLVTVSA
VL: DIVMTQSPSSLTVTAGEKVTMSCKSSQSLLNSGNLRNYLTWYQQKPGRPPKLLIYWASTRESGVPDRFTGSGSGTDFTLTISSVQAEDLAVYYCQNNYFYPLTFGAGTKLEIK
notes: also called Clone 19B2
With B4, the EC50 in the test with human Claudin 18.2 [1] is 200 pM. In the test with human Claudin 18.1, the binding result is “no binding (tested: 100 nM (highest concentration tested))”.

B5: 15F9 (antibody, V domains shown)
VH: EIQLVQSGPELKKPGETVKISCKASGYTFTNYGINWVKQAPGKGLKWMGWINPNTGETTYAEEFKGRFALSWKTSASTAYLQINNLKNEDTATYFCARLYYGNRFDYWGQGTTLTVSS
VL: DIVMTQSPSSLTVTAGEKVTMSCKSSQSLLNSGNQRNYLTWYQQKPGQPPKLLIYWASTRESGVPDRFTGSGSGTDFTLTISSVQAEDLAVYYCQNAYYYPLTFGAGTKLEIK
notes: also called Clone 15F9; 15F9 Chimera
As to B5, the concentration for a half-maximal effect (EC50) with human Claudin 18.2 [1] turned out to be 170 pM; with human Claudin 18.2 [2] it was 3320 pM. For the same molecule, in the test with human Claudin 18.1, the binding result was “no binding (tested: 100 nM (highest concentration tested))”.

B6: 13A8 (antibody, V domains shown)
VH: EVKLVESGGGLVRPGGSLKVSCAASGITFSRYAISWVRQTPEKRLEWVATISSGDSYTYYLDSVKGRFTISRDDAKNTLYLQMSSLRSEDTAMYYCGRLGYGNAMDYWGQGTSVTVSS
VL: NIMMTQSPSSLTVTAGEKVTMSCKSSQSLLNSGNQKNYLTWYQQKPGQPPKLLIYWASTRESGVPDRFTGSGSGTDFTLTISSVQAEDLAVYYCQNDYSYPLTFGAGTKLEIK
notes: also called Clone 13A8
In the case of B6, the EC50 with human Claudin 18.2 [1] was 250 pM. Besides, the binding result with human Claudin 18.1 is recorded as “no binding (tested: 100 nM (highest concentration tested))”.

B7: 18A9 (antibody, V domains shown)
VH: QVQLQQSGREVVRPGTSVKVSCKPSGYAFTNYLIDWVKQRPGQGLEWIGGINPGSGDTVYNEKFKAKATLTADKSSMTANMQLSSLTSDDSAVYFCARRVRGNSFDSWGQGTLVTVSA
VL: DIVMSQSPSSLTVTAGEKVTMSCKSSQSLLNSGNQKNYLTWYQQKPGQPPKLLIYWASTRESGVPDRFTGSGSGKDFTLTISSVQAEDLALYYCQNNYFYPLTFGAGTKLELK
notes: also called Clone 18A9; 18A9 Chimera
As to B7, the EC50 with human Claudin 18.2 [1] amounted to 310 pM; with human Claudin 18.2 [2], 1030 pM. Moreover, in the test with human Claudin 18.1, the binding result is listed as “no binding (tested: 100 nM (highest concentration tested))”.

B8: 25F5 (antibody, V domains shown)
VH: QVQLKQSGAELVKPGASLKLSCKASGYTFTTYGINWVRQRPEQGLEWIGWIFPGDATTMYNEKFKGTATLTADKSSSTAYMQLSGLTSEDSAVYFCARFYYGNSFVDWGQGTLVTVSA
VL: DIVMTQSPSSLTVTAGEKVTMSCKSSQSLLNSGNQKNYLTWYQQKPGQPPKLLIYWASTRESGVPDRFTGSGSGTDFTLTISSVQAEDLAVYYCQNAYYYPLTFGAGTKLEIK
notes: also called Clone 25F5
For B8, the EC50 with human Claudin 18.2 [1] stood at 2140 pM. For the same molecule, the binding result with human Claudin 18.1 is given as “no binding (tested: 100 nM (highest concentration tested))”.

B9: 15A7 (antibody, V domains shown)
VH: QVQLQQSGAELVKPGYSVKLSCKASGYTFTNFGINWVRQRPEKGLEWIGWIFPGDGTTKYNENFKGKATLTTDKSSSTAYMQLSRLTSEDSAVYFCARFYYGNSFVNWGQGTLVTVSA
VL: DIVMTQSPSSLTVTAGEKVTLSCKSSQTLLNSGNQKNYLTWYQQKPGQPPKLLIHWASTRESGVPDRFTGSGSGTDFTLTISSVQAEDLAVYYCQNNYFYPLTFGAGTKLEIK
notes: also called Clone 15A7
Consider B9, for which, in the test with human Claudin 18.2 [1], the EC50 was 590 pM. Moreover, in the test with human Claudin 18.1, the binding result is “no binding (tested: 100 nM (highest concentration tested))”.

B10: 14H11 (antibody, V domains shown)
VH: EVQLVESGGGLVKPGGSLKLSCAVSGFTINNYGMSWVRQTPEKRLEWVATIIGGGSSTYYPDSLKGRFTISRDNAKNNLYLQMSSLRSEDTALYYCVRLYFGNSFAYWGQGTLVTVSA
VL: DIVMTQSPSSLTVTAGEKVTVSCKSSQSLSNSGNQRNYLTWYQQKPGQPPKLLIYWASTRESGVPDRFTGSGSGTDFTLTISSVQAEDLAVYYCQNNYFYPLTFGAGTKLELK
notes: also called Clone 14H11
The molecule B10 yielded an EC50 in the test with human Claudin 18.2 [1] of 220 pM. In addition, the binding result with human Claudin 18.1 was “no binding (tested: 100 nM (highest concentration tested))”.

B11: 15D11 (antibody, V domains shown)
VH: QVQLQQSGPGLVAPSQSLSITCTVSGFSLTNYGVSWIRQPPGKGLEWLGAIWAGGNTNYNSALMSRLSIRKDNSKSQVFLKMNSLQTDDTAMYYCARVGYGNSFANWGQGTLVTVSA
VL: DIVMTQSPSSLTVTAGEKVTMSCKSSQSLLNSGNLRNYLTWYQQKPGRPPKLLIYWASTRESGVPDRFTGSGSGTDFTLTISSVQAEDLAVYYCQNNYFYPLTFGAGTKLELK
notes: also called Clone 15D11
B11 showed an EC50 with human Claudin 18.2 [1] of 210 pM. In addition, the binding result with human Claudin 18.1 is given as “no binding (tested: 100 nM (highest concentration tested))”.

B12: 9D12 (antibody, V domains shown)
VH: EVQLQQSGREVVRPGTSVKVSCKPSGYAFTNYLIDWVKQRPGQGLEWIGGINPGSGDTVYNERFKDKATLTADKSSSSANMQLSSLTSDDSAVYFCARRVRGNSFDSWGQGTLVTVSA
VL: DIVMTQSPSSLTVTAGQKVTMSCKSSQSLLNSGNQKNYLTWYQQKPGQPPKLLIYWASTRESGVPDRFTGSGSGKDFTLTISSVQAEDLAVFYCQNNYFYPLTFGAGTKLELK
notes: also called Clone 9D12
Regarding B12, in the test with human Claudin 18.2 [1], the response was half-maximal at 6780 pM (EC50). For the same molecule, the binding result with human Claudin 18.1 is “no binding (tested: 100 nM (highest concentration tested))”.

B13: 25A5 (antibody, V domains shown)
VH: EVQLKESGPGLVAPSQSLSITCTVSGFSLTNYGVSWIRQPPGKGLEWLGAIWAGGNTNYNSALMSRLSIRKDNSKSQVFLKMNSLQTDDTAMYYCARVGYGNSFANWGQGTLVTVSA
VL: DIVMTQSPSSLTVTAGEKVTMSCKSSQSLLNSGNQRNYLTWYQQKPGQPPKLLIYWASTRESGIPDRFIGSGSGTDFTLTISSVQAEDVSVYYCQNNYIFPLTFGAGTKLEIK
notes: also called Clone 25A5
With B13, the midpoint of the response in the test with human Claudin 18.2 [1], the EC50, lay at 190 pM. In addition, in the test with human Claudin 18.1, the binding result is on record as “no binding (tested: 100 nM (highest concentration tested))”.

B14: 9A8 (antibody, V domains shown)
VH: QVQLQQSGREVVRPGTSVKVSCKPSGYAFTNYLIDWVKQRPGQGLEWIGGINPGSGDTVYNEKFKAKATLTADKSSMTANMQLSSLTSDDSAVYFCARRVRGNSFDSWGQGTLVTVSA
VL: DIQMTQSPSSLTVTAGEKVTMSCKSSQSLLNSGNQRNYLTWYQQKTGQPPKLLIYWASTRESGVPDRFTGSGSGTDFTLTINSVQAEDLAVYYCQNNYYYPLTFGAGTKLEIK
notes: also called Clone 9A8
In turn, B14 displayed an EC50 in the test with human Claudin 18.2 [1] of 210 pM. Moreover, the binding result with human Claudin 18.1 is given as “no binding (tested: 100 nM (highest concentration tested))”.
